Assay [1] concerns the target Humicola insolens 43 kD endoglucanase (Humicola insolens).
For assay [2], the target named is Variant II: V240P+Q241P (Humicola insolens).
In assay [3] the target is Variant I: V221S+N222S+Q223T (Humicola insolens).

“Savinase® protease (from UniProt P29600) (enzyme)”: the values for the Residual Activity, % DAA (25° C., 5d) after storage in liquid detergent with Savinase protease in assay [1], in assay [2] and in assay [3] were 63%, 81% and 83%, respectively.

Source of the values: patent publication US5792641.
